Test results taken from the supplement of paper PMC9170038.

Tested on: MS2 coat protein
Assay: apparent KD of MS2 coat protein; designed switch direction (-1 OFF switch, 1 ON switch): -1; higher = weaker reporter binding
In short: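 Designed RNA switches were transcribed on Illumina chips by stalled E. coli RNA polymerase and titrated with SNAP-549-labelled MS2 coat protein from 0.7 or 1.5 nM, doubling to 3 µM. Step length ran from 0.8–1.5 h at the lowest concentration to 10–20 min at the highest. The apparent KD is the median over clusters for each design, from curve-fitted normalised cluster fluorescence.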

[1] = input ligand: microRNA oligo, concentration not stated
[2] = Eterna round: R95, input ligand: FMN 200 uM
[3] = Eterna round: R95, input ligand: microRNA oligo, concentration not stated
[4] = Eterna round: R95, input ligand: none

Sequence	apparent KD of MS2 coat protein (input ligand: FMN 200 uM)	apparent KD of MS2 coat protein (input ligand: none)	apparent KD of MS2 coat protein [1]	apparent KD of MS2 coat protein [2]	apparent KD of MS2 coat protein [3]	apparent KD of MS2 coat protein [4]
AAUUAAUUAAUUAAUUAAUACAUGAGGAUCACCCAUGUAAUUUAAGAUCCUUAUACAAGCUUUGAUCUCGUCUUAUA [Stov1/5-A1] (Eterna round: R97, puzzle: Sensor, turn-off variant 1)	94.5 nM	106 nM	–	–	–	–
GGCAUGCAAGGAUAUACUUGCAGUGAUGUUCGAUAAAUUCUACUUGAGGAUCACCCAAGUAGAAGGUGCAUGCC [Exclusion 2 (Mod4 JL EX2 4.74 Vienna UCT mod of Mamaed)] (Eterna round: R97, puzzle: Exclusion 2)	15.2 nM	27.3 nM	–	–	–	–
UACAUGAGGAUCACCCAUGUUUUGUCGUGUAUGGUAUUUAUCUAGGAUAUCAAAUUAUUUAUUUAUGAGAAGGAGAAUAUUAAU [JMF's solution 9] (Eterna round: R96, puzzle: Exclusion NG 3)	37.9 nM	44.6 nM	26.5 nM	–	–	–
GGUUGACAUGAGGAUCACCCAUGUGAGGAUAUGCGAGAGAAAAAAGUGAGGAAGAAAAGUAGAAGGCGCUGACG [salish99-ex1_r3_001] (puzzle: Exclusion 1)	–	–	–	59.9 nM	49 nM	57.1 nM
GCCGAAAGUGUGAGGAUAUACCUAUGGAUACAUAGGUAGAAGGCACAUGAGGAUCACCCAUGUGUCCAAACGGC [Eli bmx4 4.23] (Eterna round: R97, puzzle: Brourd's mod of Exclusion 4)	54 nM	21.7 nM	–	–	–	–
UAGCAUUGCCAAAGGUAGUGCAUUACAUGAGGAUCACCCAUGUAGGAUAUGGUAGGCAAAGCUUACCAGAAGGACAUGAUAAUU [Mat - Exclusion NG 3 - Mod of JL - D16] (Eterna round: R96, puzzle: Exclusion NG 3)	104 nM	47.8 nM	36.5 nM	–	–	–
UGUUGUCGCGCAGGAUAUGAGGAUCACCCAUAUGGAGGAUAUGAAAAGAAGGUUCUGAGGAUCACCCAGAAGGGCGGGACAACU [pwkr exNG2 2xF5 2xFMN.20] (Eterna round: R96, puzzle: Exclusion NG 2)	261 nM	60.6 nM	43 nM	–	–	–
AGUUGGCGAGGAUAUACAUGAGGAUCACCCAUGUGAGAGAUACUAGUGAGGUCGAUUAGGAGAAGGCGCUGACA [Mat X3R4 m20] (Eterna round: R97, puzzle: Exclusion 3)	63.1 nM	48 nM	–	–	–	–
AGAGUGCUGCGAGGAUAUACAUGAGGAUCACCCAUGUAAACCUGUGAGGCAAAGCCUCACAGGAUGUAGAAGGCGCAGUACUCA [Mat - Exclusion NG 2 - Mod of JL - D40] (Eterna round: R96, puzzle: Exclusion NG 2)	20 nM	19.5 nM	8.82 nM	–	–	–
CUUUUGUGAGGAUAUCAGUAGUAAUAAAAUAAAAUUACUACUGAGAAGGCACAUGAGGAUCACCCAUGUUCCUC [salish99_ex4_r3_018] (puzzle: Exclusion 4)	–	–	–	–	37.6 nM	–
GCAAGCUUAAUCUGUAUGAACAUGAGGAUCACCCAUGUAUAAGGUAAUUCUGUUGGGUUUUUUAUUGCUCGUCUUAU [JR_STOV1_Sub026] (Eterna round: R97, puzzle: Sensor, turn-off variant 1)	71.8 nM	76.9 nM	–	–	–	–
GGGUGCAGGCUGGGAUCCUACAUGAGGAUCACCCAUGUGGUCCGGUGACGUGAGUCACCGGACUUAGCUCGUCUUGU [salish99_S_TOV1_R5_008] (Eterna round: R97, puzzle: Sensor, turn-off variant 1)	569 nM	865 nM	–	–	–	–
ACUCUUCCUGUUAGGAUAUGCAUCGGGCUUCCGCAGCAGAAGGAACAUGAGGAUCACCCAUGUCAAAUAAAAUC (Eterna round: R97, puzzle: Brourd's mod of Exclusion 4)	33.1 nM	17.4 nM	–	–	–	–
UACUAAAAGGAGGAUAUCGUAUCGGAAACGAUACGAGAAGGCUUAACAUGAGGAUCACCCAUGUUCUUCAAUAU [Mat - Exclusion 6 - Eli Mod - D92] (puzzle: Exclusion 6)	–	–	–	18.2 nM	16 nM	14.8 nM
GGUGCGUAUGUGAGGAUAUGCUGGUCCUUGGUUCAGCAGAAGGCACAUGAGGAUCACCCAUGUGGUGUCGUACC [salish99_Bmod_Ex4_025] (puzzle: Brourd's mod of Exclusion 4)	–	–	–	–	188 nM	–
